The target of data set [1] is T1, His-S5A substrate (E6AP Ubiquitin Ligase Kit-S5a Substrate, Boston Biochem #K-230), P55036.
T1 chain: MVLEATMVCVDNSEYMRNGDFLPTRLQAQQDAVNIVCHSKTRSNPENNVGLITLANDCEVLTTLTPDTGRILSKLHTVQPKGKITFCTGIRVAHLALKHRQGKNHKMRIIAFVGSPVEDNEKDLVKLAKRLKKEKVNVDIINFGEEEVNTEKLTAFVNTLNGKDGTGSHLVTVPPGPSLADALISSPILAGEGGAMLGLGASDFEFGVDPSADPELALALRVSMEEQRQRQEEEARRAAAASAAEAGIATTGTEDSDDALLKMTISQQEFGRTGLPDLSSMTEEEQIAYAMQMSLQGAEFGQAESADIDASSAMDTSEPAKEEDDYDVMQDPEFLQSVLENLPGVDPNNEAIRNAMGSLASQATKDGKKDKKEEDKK

B1: rat UBE3A protein (endogenous, from wild type rat cerebrospinal fluid and hippocampal dialysate) (protein)
chain: MATACKRSSGESQSEDIEASRMKRAAAKHLIERYYHQLTEGCGNEACTNEFCASCPTFLRMDNNAAAIKALELYKINAKLCDPHPSKKGASSAYLENSKGASNNSEIKMNKKEEFKEVDYLTEEKVYEIYEFCREREDYSPLIRVIGRIFSSAEALVQSFRKVKQHTKEELKSLQEKDEDKDEDEKEKAACSAAAMEEDSEASSSRMGDSSQGDNNVQKLGPDDVTVDIDAIRRVYSSLLSDEKIETAFLNALVYLSPNVECDLTYHNVYTRDPNYLNLFIIVMENRNLHSPEYLEMALPLFCKAMSKLPLAAQGKLIRLWSKYSADQIRRMMETFQQLITYKVISNEFNSRNLVNDDDAIVAASKCLKMVYYANVVGGDVDTNHNEEDDEEPIPESSELTLQELLGEERRNKKGPRVDPLETEIGVKTLDCRKPLISFEEFINEPLNDVLEMDKDYTFFKVETENKFSFMTCPFILNAVTKNLGLYYDNRIRMYSERRITVLYSLVQGQQLNPYLRLKVRRDHIIDDALVRLEMIAMENPADLKKQLYVEFEGEQGVDEGGVSKEFFQLVVEEIFNPDIGMFTYDEATRLFWFNPSSFETEGQFTLIGIVLGLAIYNNCILDVHFPMVVYRKLMGKKGTFCDLGDSHPILYQSLKDLLEYEGNVEDDMMITFQISQTDLFGNPMMYDLKENGDKIPITNENRKEFVSLYSDYILNKSVEKQFKAFRRGFHMVTNESPLKYLFRPEEIELLICGSRNLDFQALEETTEYDGGYTRESVVIREFWEIVHSFTDEQKRLFLQFTTGTDRAPVGGLGKLKMIIAKNGPDTERLPTSHTCFNVLLLPEYSSKEKLKERLLKAITYAKGFGML
Take B1: the “ubiquitination assay western blot (self-ubiquitination of UBE3A)” value is “the UBE3A protein present in both the CSF and hippocampal dialysate were active in ubiquitinating both the S5A substrate and UBE3A”. Moreover, in data set [1], the “ubiquitination assay western blot (S5A band shift over time)” value was “the UBE3A protein present in both the CSF and hippocampal dialysate were active in ubiquitinating both the S5A substrate and UBE3A”; the “ubiquitination assay western blot after immuno-depletion of UBE3A (S5A band intensity)” value is “With UBE3A protein immuno-precipitated, UBE3A protein was not detected and the S5A band intensity remained unchanged over time”.

The values are drawn from patent US20240216536.
